Data: publication PMC12597101

Test system: 151AmF-GFP (azide-exposed GFP, protein part of RGG/DGG) (synthetic (codon-optimized GFP, expressed in E. coli NiCo21(DE3)))
Test: EMSA (SDS-PAGE gel shift)
Conditions: clicked to AmF-GFP, 59 pmol GFP + 59 pmol guide, SPAAC at 4 C for 1.5 h, then equal volume of target, 20 min at room temperature, 15% SDS-PAGE, protein stored in 50 mM HEPES …

Row | Sequence | binding signal (DGG (covalent DNA guide), DBCO on guide DNA) [% bound] | binding signal (RGG (covalent RNA guide), DBCO on guide RNA) [% bound]
1 | TAACCCTAACCCTAACCCTAACCCTA / GCUAGAUCCGUAGGGUUAGGGUUAGGGUUAGGGUUAACCUCCGACC [Tel26-DBCO-DNA guide + Target RNA [Tel26]] | 86 | 
2 | UAACCCUAACCCUAACCCUAACCCUA / GCUAGAUCCGUAGGGUUAGGGUUAGGGUUAGGGUUAACCUCCGACC [Tel26-DBCO-RNA guide + Target RNA [Tel26]] |  | 88
